Data set [1] addresses T1, GluA2Qflip AMPA receptor (homomeric, Q/R site unedited) (UniProt P19491-2 P19491-2:22-883). The experiment in a line: inhibition; whole-cell current recording, closed-channel (0.1 mM glutamate), -60 mV, 22 C. As to conditions: tags: transiently expressed in HEK-293S cells; chain copies: 4 inferred. An excerpt:
Functional Characterization of FN1040 by Whole-Cell Recording. Using whole-cell current recording, we first tested each of the six putative RNA aptamers against GluA2Qflip, the SELEX target. […] To verify this, we tested the aptamer at increasing concentrations against the GluA2Qflip channel expressed in HEK-293 cells (FIG. 1b). On the closed-channel conformation, we observed a linear relationship between the A/A(I) value and the aptamer concentration (FIG. 1b). Using eq 1 (see Data Analysis of Whole-Cell Current Amplitude), we estimated that the inhibition constant, K, for the closed-channel form of GluA2Qflip was 2.3±0.7 μM (FIG. 1b).
Whole-Cell Current Recording. […] For recording of the NMDA channels, the intracellular solution contained (in mM) 140 CsCl, 1 MgCl₂, 0.1 EGTA, and 10 HEPES (pH 7.2 adjusted by Mg(OH)₂) and the extracellular solution contained 2 μM of glycine and (in mM) 135 NaCl, 5.4 KCl, 1.8 CaCl₂, 10 glucose and 5 HEPES (pH 7.2 adjusted by NaOH).¹⁰ The glutamate-induced whole-cell current was recorded using an Axopatch-200B amplifier at a cutoff frequency of 2-20 kHz by a built-in, eight-pole Bessel filter and digitized at 5-50 kHz sampling frequency using a Digidata 1322A from Axon Instruments (Molecular Devices, Sunnyvale, Calif.). […]

Data set [2] deals with T1, GluA2Qflip AMPA receptor (homomeric, …). Put plainly: competition; homologous competition with 32P-FN1040, nylon filter; 150 mM NaCl, 3 mM KCl, 1 mM CaCl2, 1 mM MgCl2, 10 mM HEPES pH 7.4; 10 ng/ul tRNA; NBQX displaces about 50%, glutamate about 30%, BDZ-f/BDZ-g none. The following applies: tags: transiently expressed in HEK-293S cells; chain copies: 4 inferred. An excerpt: Binding Affinity of FN1040 on GluA2Qflip. The binding affinity, Kd, of FN1040 for GluA2Qflip was estimated from a homologous competitive binding experiment. In this experiment, intact GluA2Qflip receptors embedded in HEK-293 cell membrane fragments were mixed with ³²P-labeled or hot FN1040 (see RNA 5′-end Labeled with ³²P.). The unlabeled FN1040 (or cold FN1040) was used to compete with the hot FN1040 for the binding to GluA2Qflip receptors. As shown, the normalized radioactivity as a function of the cold FN1040 was determined (FIG. 1c).
Homologous Competitive Binding Assay. FN1040 was transcribed in a transcription reaction mixture with additional 0.4 μM of ³²P-α-ATP (800 Ci/mmol). The ³²P-FN1040 product was separated by 8M urea PAGE and recovered by electroelution method (Elutrap, GE Health). Before mixing with the cell membrane fragments, the RNA was run through a refolding procedure, i.e. 95° C./3′→50° C./30′→room temperature/30′. The binding mixture contained 0.6 nM of GluA2Qflip receptor, 10 ng/μl of yeast tRNA, 10 nM of ³²P-FN1040, and 0 to 1.5 μM of unlabeled FN1040 in the extracelluar buffer. […] The radioactivity remaining on the filter was counted in a scintillation counter (Beckman LS6500). […] Assuming a one-site binding model, we determined the Kd of the aptamer bound to the receptor by fitting the binding data to eq 2⁵² below, […]

T1 sequence (P19491 other isoform, or with tags, fused parts or gaps): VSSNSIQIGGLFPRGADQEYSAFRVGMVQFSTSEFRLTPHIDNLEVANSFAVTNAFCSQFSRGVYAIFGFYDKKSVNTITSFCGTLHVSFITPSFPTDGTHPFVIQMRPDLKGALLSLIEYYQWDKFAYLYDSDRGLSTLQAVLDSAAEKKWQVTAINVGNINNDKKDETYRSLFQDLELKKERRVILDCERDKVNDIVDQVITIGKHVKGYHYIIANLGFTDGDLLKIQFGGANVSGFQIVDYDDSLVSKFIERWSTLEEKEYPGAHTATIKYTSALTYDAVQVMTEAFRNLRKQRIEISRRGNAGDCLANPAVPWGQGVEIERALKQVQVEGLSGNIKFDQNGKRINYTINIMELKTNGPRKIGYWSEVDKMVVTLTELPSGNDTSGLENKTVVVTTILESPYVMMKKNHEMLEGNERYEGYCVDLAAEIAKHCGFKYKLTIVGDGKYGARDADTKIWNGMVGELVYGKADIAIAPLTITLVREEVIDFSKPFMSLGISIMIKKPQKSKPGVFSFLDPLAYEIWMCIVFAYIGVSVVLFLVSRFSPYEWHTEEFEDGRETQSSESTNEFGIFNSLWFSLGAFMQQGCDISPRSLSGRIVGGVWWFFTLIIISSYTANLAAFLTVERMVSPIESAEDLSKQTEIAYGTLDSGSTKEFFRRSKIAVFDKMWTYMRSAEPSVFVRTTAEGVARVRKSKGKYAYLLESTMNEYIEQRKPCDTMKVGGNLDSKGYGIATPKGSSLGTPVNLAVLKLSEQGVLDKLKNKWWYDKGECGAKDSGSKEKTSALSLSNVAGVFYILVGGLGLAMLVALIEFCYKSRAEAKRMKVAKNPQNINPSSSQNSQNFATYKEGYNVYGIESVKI

B1: FN1040 (ssRNA)
RNA: GGGAGAAUUCAACUGCCAUCUAGGCACGCUACUGUGAGUGUUGUGAUGGCGGCUGAACGAUCGAAACGGAACUGUAGUACUACAAGCUUCUGGACUCGGU
modifications: 2'-F at all A, C and U; G is 2'-OH
Usually Ki stands for a dissociation constant, usually derived from enzyme kinetics or from competition with a known ligand. High values mean weaker binding, low ones tighter binding. As usually defined, the Kd is the concentration at which binding is half-saturated. Higher therefore signals lower affinity. As for B1, affinity in data set [1] was put at a Ki of 2.3 µM. This molecule also came in with a dissociation constant (Kd) in data set [2] of 0.02 µM.

Source of the values: patent publication US20190010498, “CHEMICALLY MODIFIED AMPA RECEPTOR RNA APTAMERS” (The Research Foundation for the State University of New York, published 2019).
